Experimental data published in the supplement of paper PMC12042874.
± gives the uncertainty stated by the source.

Test: amyloid nucleation score (Sup35N fusion, yeast selection) (log enrichment); library NNK3; higher = more nucleation; inactive = no reads after selection
How it was run: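 Peptides of 20 random codons fused to Sup35N were expressed in psi-negative yeast, induced 24 hours with 100 μM copper sulfate, then grown 7 days at 30°C on medium lacking adenine and uracil. Input and output plasmid inserts were Illumina-sequenced. Nucleation score is the DiMSum log enrichment of output over input reads, centred on the mode score of non-aggregating sequences, excluding sequences with under 100 input reads. Random libraries had three technical output replicates.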

| Substance | amyloid nucleation score |
| --- | --- |
| VKDGTLCWCRAPFRCCRMPI | -0.426 ± 1.1 |
| VKNIGS | inactive |
| VKNVIRGIKAQKVGGDESLC | inactive |
| VKPLSRY | inactive |
| VKPSLF | -0.567 ± 1 |
| VKTESEVLLSRMSTYSWENA | 1.23 ± 0.17 |
| VKVES | -0.195 ± 1.1 |
| VKVVNTSCPMDGLPNCLTRR | inactive |
| VLAKLVFKPYKKGVISQ | inactive |
| VLCDDTCYFADVSSWSWDWF | inactive |
| VLCFI | inactive |
| VLCHKSKWNMH | 0.322 ± 0.26 |
| VLCLVAGDYMNELIGGKGKV | inactive |
| VLDRVKNRVFYLLVECQKLF | inactive |
| VLGNFSSFVAAKVARRS | inactive |
| VLIDYYMMSTSN | inactive |
| VLILFVCPNFVLGSGVLIGW | inactive |
| VLKESMLGISLLMGTLRW | 0.2 ± 0.56 |
| VLLLTMEFGASDVFCWVVKY | inactive |
| VLLMRNAVIYPGSGMSSSSA | inactive |
| VLLPPGVE | -0.23 ± 0.98 |
| VLMMPPAFRRQSFNFRCVSQ | inactive |
| VLPRRTLACIKRTNKASETV | inactive |
| VLSEESNYAKM | inactive |

| Substance | amyloid nucleation score |
| --- | --- |
| VLTVEMLHAWNCG | inactive |
| VLVIGMWKTFYNYMQILCQA | inactive |
| VLVLS | inactive |
| VLVMISSWNYLMCIFFCINV | inactive |
| VLYCGHCFVFTRCSGWVQLG | inactive |
| VLYVTKGVIFRCGCYNVGED | 1.7 ± 0.11 |
| VMCLPLPKFI | inactive |
| VMCLRTFGASSFFI | -0.023 ± 0.55 |
| VMCVGYGTSRYSWVAFGLDK | inactive |
| VMFFDIKIMARFWTPNEL | inactive |
| VMHNVM | inactive |
| VMLCFTFSMLVLVGGQVCLY | inactive |
| VMLHSRFGRFRDNVTL | inactive |
| VMLNLQI | 1.18 ± 0.17 |
| VMLRTFSA | inactive |
| VMRFYQPSTASLYGSLASPR | inactive |
| VNALKRTGK | inactive |
| VNATDRSVSFLHKGPALDSN | inactive |
| VNEFNGDGGSQLRQKQNPLF | inactive |
| VNISVRQALHANYVGTCFVC | 1.85 ± 0.084 |
| VNKFNFNIVIFSNWNMYQ | 3.36 ± 0.062 |
| VNKVDGLETMQYIFTCGSWM | 0.098 ± 0.23 |
| VNLDTSSGKT | inactive |
| VNLPFNDKYHLVFIGMA | inactive |

| Substance | amyloid nucleation score |
| --- | --- |
| VNPISWGHVIVTYQN | inactive |
| VNSLATRNFIGTLCVVSHKR | inactive |
| VNSLVSRQINFIEVRRSMRW | 0.849 ± 0.23 |
| VNVEFLASVFPWNISKKCEQ | inactive |
| VNWSSFIFESTSIFS | 0.476 ± 0.28 |
| VNYRN | inactive |
| VNYYRCWLVSIRYYSLHDHL | 2.35 ± 0.055 |
| VPCMRNFDLYLKSVTDRLDK | inactive |
| VPGCA | -0.075 ± 1.1 |
| VPGDEHRDGKLGAKWWTCRR | inactive |
| VPGYAAMSPLLCYRGIPVQG | inactive |
| VPKAYR | inactive |
| VPLIMSRGRRCRMLFKLPST | inactive |
| VPLPEGFHNRTSNCIFFINE | 0.932 ± 0.12 |
| VPSPTFIHVARRSRYHYASR | inactive |
| VQAYLCEYR | inactive |
| VQGTILRSRQNCTL | 0.308 ± 0.48 |
| VQLSMPGFGDWCRIRWVTAG | inactive |
| VRAMCLPHV | inactive |
| VRDCTSQLINDGNNLVPGMW | inactive |
| VRILLRFLVVFRLYLVFC | inactive |
| VRLVGLCFYIAMSLPSSFFI | inactive |
| VRMMFSWPK | 0.902 ± 0.24 |
| VRPLRSVLFDVASNVIGSVG | inactive |

| Substance | amyloid nucleation score |
| --- | --- |
| VRSPPVPLNCVE | inactive |
| VRSRLGSGRDEKPRALSSCM | inactive |
| VRTFEAVLCVPIRLDWVRDR | inactive |
| VRTNPGGFWLNLCQQTQKES | inactive |
| VRTYNQCKSHVLDWLRNTYF | -0.295 ± 0.96 |
| VRVSPLCIGRPALGQAIAVF | inactive |
| VRWSWSMFVVYNSVES | inactive |
| VSCYSRYRVVVHRGSVVISR | inactive |
| VSCYVTHISYRSSFGSMFYS | inactive |
| VSDCESMAN | inactive |
| VSFLFDIW | 2.24 ± 0.06 |
| VSFLMIYLSSNCSVSVRYHY | inactive |
| VSGMNSKLFYW | inactive |
| VSGWFDWDFLDDNGQYWLHV | inactive |
| VSIDSSFLHRSLLS | inactive |
| VSIIVRYQL | 1.93 ± 0.096 |
| VSITVFPFTLLITYLI | 0.165 ± 0.75 |
| VSKVKSNPPYITDEIVFCRR | inactive |
| VSLCIDRSMRCPRLVCVERG | inactive |
| VSLKEITKLYRSIWVFLWSS | inactive |
| VSLTFVVCRALFLSFTW | inactive |
| VSMSMRYQDASGVTSCFTSL | inactive |
| VSNDLNFILYAPTNVVMSTY | 1.25 ± 0.14 |
| VSNNVQVNQVMYFNTVICIV | 2.69 ± 0.063 |

| Substance | amyloid nucleation score |
| --- | --- |
| VSNVSGSIHWGNFCAMNIAV | inactive |
| VSNYDLESS | inactive |
| VSSMGSV | inactive |
| VSTRGITDMMLGDMAVVNVG | inactive |
| VSTSPNIDSLRCFCIHVKRR | inactive |
| VSVCLVCAVIPRLLSMRCIV | inactive |
| VSVLMGAWDLMWMPGKS | 1.08 ± 0.14 |
| VSYVGLDSDICSFNWLSLLA | inactive |
| VTAELNFITVNGYVE | inactive |
| VTCNVSSYGTMKEKVAYEGS | -0.003 ± 0.88 |
| VTFAARLTYKSILDILCMME | inactive |
| VTFYFSYMCAKGTH | 0.53 ± 0.17 |
| VTGLEVRHQRHIWHNMGMIR | inactive |
| VTKAWMCYYLLLYVWDEGRA | inactive |
| VTLTLEGLDRWVNQSEIAPS | 0.071 ± 0.29 |
| VTMFDLVSM | inactive |
| VTMMLVMLFSQMFSFLAFVN | inactive |
| VTQYMYTT | inactive |
| VTRCCPMWD | -0.702 ± 2.5 |
| VTRFTYPRILLGRNVDWLSF | inactive |
| VTVSSWASYIIVNGKWRIKC | inactive |
| VTWIYSSNGVWINGDKSFML | 1.22 ± 0.079 |
| VVDYNKDQDGAMTASRGDRK | -0.726 ± 1.5 |
| VVERKGRSKKLVFVCLLILW | inactive |

| Substance | amyloid nucleation score |
| --- | --- |
| VVGKFSTADILSFR | inactive |
| VVHKNRLMKFHRFLILYSEG | inactive |
| VVINHYMNHIAEHTDSLRGG | 1.57 ± 0.075 |
| VVKNTW | inactive |
| VVKYSSRCSKVRICLSRWVW | inactive |
| VVQSGRAFRCYRCSLEVQTE | inactive |
| VVSAGIAFPWTGLS | inactive |
| VVSLMDTPFD | inactive |
| VVSTNVYGGLTMASYCGALP | 1.24 ± 0.16 |
| VVTSRCLRKKLFLDLSVCIT | inactive |
| VVVIHE | inactive |
| VVYIRWYIRLLRHNIVSILS | inactive |
| VWFNPLCYRNYGMETLVSTK | inactive |
| VWIIEK | 1.99 ± 0.062 |
| VWLCSLLQITFIYAEVTVSL | inactive |
| VWMVCSPSGIRLANSFVVDI | inactive |
| VWYDRSEGLARAHNLYSGSE | inactive |
| VWYVSLTMIWLGSMALGFAR | inactive |
| VYDLVT | inactive |
| VYFMCVQHWLVSGHPDPLNE | -0.246 ± 0.69 |
| VYGIQRVMGRLWIMNVWVPF | inactive |
| VYGLVRLALSAINDYEDYNL | inactive |
| VYGSQGYRGRCFHLCYYYRS | inactive |
| VYGWMVVHVGRLWTWLHRLL | inactive |

| Substance | amyloid nucleation score |
| --- | --- |
| VYHFSGWCRHSCSSLQKSHD | inactive |
| VYHTYVVLMGGHLPTSLGVT | 1.8 ± 0.078 |
| VYISESVQRMYSLCTFSSLD | 1.18 ± 0.085 |
| VYISFGFLILFLFSEFLPCV | inactive |
| VYRFGMVLRNVHLFRLLIGG | inactive |
| VYRGLQWECLDGIVAFRRER | inactive |
| VYRIARMAQHLIRWKNR | 0.187 ± 0.7 |
| VYRQVLRET | inactive |
| VYSLE | inactive |
| VYSLMGS | inactive |
| VYSTVF | inactive |
| VYTTS | inactive |
| VYVFAQ | inactive |
| VYVHLRNLQSL | inactive |
| VYYFRQLFPICIDNQARTWC | inactive |
| VYYSWVICSMERTKSWSMSS | -0.227 ± 0.75 |
| WAIGQLYFMRILV | inactive |
| WASDNVEGDWWYWW | 0.017 ± 0.57 |
